The target of one experiment is T1, αvβ3 (Homo sapiens, UniProt P05106+P06756).
T1 construct: human placentas were obtained, cut into small pieces and extracted; from tissue
Put plainly: dissociation of 125I-ligand from purified αvβ3. The conditions noted are these: two hour dissociation after four hours binding. How it is done: The binding of Fab 9 is shown as an example in this analysis, but its binding behavior was essentially identical to that of the MTF antibodies. The ability of ^125I-Fab 9 to dissociate from purified αvβ3 was compared to that of ^125I-vitronectin in purified ligand-receptor binding assays performed as described in Example 5B. Both ligands were incubated with purified αvβ3 for four hours. Then buffer containing radioligands was replaced with binding buffer lacking ligand to allow dissociation. An effort was also made to promote dissociation by adding 10 uM GRGDSP (SEQ ID NO 66) after the binding step. […] Following a two hour incubation to allow dissociation, buffer was removed and the amount of ^125I-ligand remaining bound to integrin was measured. The remaining bound ligand was compared to the amount of ligand bound at the beginning of the dissociation step.

The test system of another experiment is M21 melanoma cells. Put plainly: adhesion of M21 melanoma cells to immobilized Fab or vitronectin. The experiment is classed as cell-based, human. How it is done: When Fab 9 that contained an RGD binding site was used in cell adhesion assays, it blocked the melanoma cell adhesion to immobilized vitronectin with an IC50 of 4 nM in contrast to the framework antibody pMT12 that had no effect on cell adhesion. […] This finding provides further evidence that Fab 9 is specific to beta 3 integrins. In similar assays, Fab 9 was compared to vitronectin in the ability to support cellular adhesion. Both proteins supported the binding of cells saturating at approximately 5 ug/ml of Fab or vitronectin.
This assay, performed as described in Example 4, was performed with whole cell adhesion assays using M21 melanoma cells because they adhere to RGD-ligands primarily via αvβ3. M21 cells were allowed to adhere to a concentration range from 1 to 10 ug/ml of immobilized Fab 9 and MTF-10.

T1 sequence (P06756 31-889 limits assumed): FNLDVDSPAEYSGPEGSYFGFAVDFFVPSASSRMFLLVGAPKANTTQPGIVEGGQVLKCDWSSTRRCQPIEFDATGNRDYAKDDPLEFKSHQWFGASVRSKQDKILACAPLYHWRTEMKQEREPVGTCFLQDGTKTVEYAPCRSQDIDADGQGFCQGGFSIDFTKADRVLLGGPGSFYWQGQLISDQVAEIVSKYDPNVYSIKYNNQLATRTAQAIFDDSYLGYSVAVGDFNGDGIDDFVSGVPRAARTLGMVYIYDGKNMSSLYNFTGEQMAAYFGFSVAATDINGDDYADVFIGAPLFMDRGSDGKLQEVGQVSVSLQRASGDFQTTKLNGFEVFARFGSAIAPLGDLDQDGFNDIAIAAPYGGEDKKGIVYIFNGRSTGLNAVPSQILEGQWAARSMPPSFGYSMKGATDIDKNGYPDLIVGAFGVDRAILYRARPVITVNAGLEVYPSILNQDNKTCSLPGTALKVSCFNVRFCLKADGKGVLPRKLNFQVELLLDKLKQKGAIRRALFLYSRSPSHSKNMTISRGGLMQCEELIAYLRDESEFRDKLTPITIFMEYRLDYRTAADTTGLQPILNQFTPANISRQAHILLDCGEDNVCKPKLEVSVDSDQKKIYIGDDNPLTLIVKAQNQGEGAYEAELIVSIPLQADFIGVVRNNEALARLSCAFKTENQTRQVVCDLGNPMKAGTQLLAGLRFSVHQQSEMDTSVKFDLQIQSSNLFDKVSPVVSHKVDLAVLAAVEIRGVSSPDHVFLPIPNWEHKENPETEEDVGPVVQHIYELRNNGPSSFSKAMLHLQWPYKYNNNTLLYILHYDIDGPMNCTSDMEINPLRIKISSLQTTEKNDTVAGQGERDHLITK
T1 sequence (P06756 891-1048 partner limits assumed): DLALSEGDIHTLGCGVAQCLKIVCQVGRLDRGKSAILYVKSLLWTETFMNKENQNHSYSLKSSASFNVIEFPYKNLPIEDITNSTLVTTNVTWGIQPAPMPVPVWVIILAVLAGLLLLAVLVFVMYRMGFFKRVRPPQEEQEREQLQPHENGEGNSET
T1 sequence (P05106 27-788): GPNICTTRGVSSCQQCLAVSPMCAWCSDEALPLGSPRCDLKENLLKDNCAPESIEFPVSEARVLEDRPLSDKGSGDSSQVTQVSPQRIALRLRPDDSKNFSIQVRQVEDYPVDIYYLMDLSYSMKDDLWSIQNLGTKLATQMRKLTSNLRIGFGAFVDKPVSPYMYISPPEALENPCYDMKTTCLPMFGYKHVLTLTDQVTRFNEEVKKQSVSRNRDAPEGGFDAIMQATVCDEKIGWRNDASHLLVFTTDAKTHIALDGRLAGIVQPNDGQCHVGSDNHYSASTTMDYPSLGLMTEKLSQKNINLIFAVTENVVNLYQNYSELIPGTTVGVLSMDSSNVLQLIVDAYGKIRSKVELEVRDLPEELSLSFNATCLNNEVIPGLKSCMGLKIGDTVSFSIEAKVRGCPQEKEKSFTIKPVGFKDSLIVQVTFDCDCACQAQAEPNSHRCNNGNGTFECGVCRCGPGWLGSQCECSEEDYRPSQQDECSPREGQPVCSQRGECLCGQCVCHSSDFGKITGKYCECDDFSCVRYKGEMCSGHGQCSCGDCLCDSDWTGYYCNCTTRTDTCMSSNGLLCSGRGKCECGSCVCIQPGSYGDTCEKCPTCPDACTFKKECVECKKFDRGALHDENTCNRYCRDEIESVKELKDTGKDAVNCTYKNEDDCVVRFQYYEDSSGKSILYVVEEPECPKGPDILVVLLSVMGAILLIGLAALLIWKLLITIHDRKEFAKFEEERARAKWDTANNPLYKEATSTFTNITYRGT

With “vitronectin: natural high affinity ligand of αvβ3”, in the experiment with αvβ3, the “bound ligand that remained associated with αvβ3” value is “greater than 65%”. Besides, in the experiment on M21 melanoma cells, the “coating concentration at which supported cell binding saturates” value is “approximately 5 ug/ml”.

These data come from patent publication US6955900B1, “Methods for producing polypeptide binding sites, monoclonal antibodies and compositions thereof” (The Scripps Research Institute, priority 1993, dated 2005).
